In patent US20180094059A1:
Values belong to the binder of their own block, whether it stands above or below them.

Molecular target: antigen- and TRAIL receptor-expressing Colo205 cells
Test: flow cytometry, Colo205 cells

- EC50: 32.5 nM
B1: dsDb3M6-scTRAIL3-… (protein)
chain: DYKDDDDKGGGGSGTEVQLLESGGGLVQPGGSLRLSCAASGFTFSHYVMAWVRQAPGKCLEWVSSISSSGGWTLYADSVKGRFTISRDNSKNTLYLQMNSLRAEDTAVYYCTRGLKMATIFDYWGQGTLVTVSSGGGGSQSALTQPASVSGSPGQSITISCTGTSSDVGSYNVVSWYQQHPGKAPKLIIYEVSQRPSGVSNRFSGSKSGNTASLTISGLQTEDEADYYCSSYAGSSIFVIFGCGTKVTVLAAAGGSGGGPQRVAAHITGTRGRSNTLSSPNSKNEKALGRKINSWESSRSGHSFLSNLHLRNGELVIHEKGFYYIYSQTYFRFQEEIKENTKNDKQMVQYIYKYTSYPDPILLMKSARNSCWSKDAEYGLYSIYQGGIFELKENDRIFVSVTNEHLIDMDHEASFFGAFLVGGGPQRVAAHITGTRGRSNTLSSPNSKNEKALGRKINSWESSRSGHSFLSNLHLRNGELVIHEKGFYYIYSQTYFRFQEEIKENTKNDKQMVQYIYKYTSYPDPILLMKSARNSCWSKDAEYGLYSIYQGGIFELKENDRIFVSVTNEHLIDMDHEASFFGAFLVGGGPQRVAAHITGTRGRSNTLSSPNSKNEKALGRKINSWESSRSGHSFLSNLHLRNGELVIHEKGFYYIYSQTYFRFQEEIKENTKNDKQMVQYIYKYTSYPDPILLMKSARNSCWSKDAEYGLYSIYQGGIFELKENDRIFVSVTNEHLIDMDHEASFFGAFLVG

- EC50: 0.58 nM
B2: scFvhu225-EHD2-scTRAIL3-… (protein)
chain: DYKDDDDKGGGGSGTEVQLVESGGGLVQPGGSLRLSCAASGFSLTNYGVHWVRQAPGKGLEWLGVIWSGGNTDYNTPFTSRFTISRDNSKNTLYLQMNSLRAEDTAVYYCARALTYYDYEFAYWGQGTTVTVSSGGGGSGGGGSGGGGSDIQLTQSPSFLSASVGDRVTITCRASQSIGTNIHWYQQKPGKAPKLLIKYASESISGVPSRFSGSGSGTEFTLTISSLQPEDFATYYCQQNNNWPTTFGAGTKLEIKRAAAGGSGGDFTPPTVKILQSSCDGGGHFPPTIQLLCLVSGYTPGTINITWLEDGQVMDVDLSTASTTQEGELASTQSELTLSQKHWLSDRTYTCQVTYQGHTFEDSTKKCADSNGGSGGASSGGGPQRVAAHITGTRGRSNTLSSPNSKNEKALGRKINSWESSRSGHSFLSNLHLRNGELVIHEKGFYYIYSQTYFRFQEEIKENTKNDKQMVQYIYKYTSYPDPILLMKSARNSCWSKDAEYGLYSIYQGGIFELKENDRIFVSVTNEHLIDMDHEASFFGAFLVGGGPQRVAAHITGTRGRSNTLSSPNSKNEKALGRKINSWESSRSGHSFLSNLHLRNGELVIHEKGFYYIYSQTYFRFQEEIKENTKNDKQMVQYIYKYTSYPDPILLMKSARNSCWSKDAEYGLYSIYQGGIFELKENDRIFVSVTNEHLIDMDHEASFFGAFLVGGGPQRVAAHITGTRGRSNTLSSPNSKNEKALGRKINSWESSRSGHSFLSNLHLRNGELVIHEKGFYYIYSQTYFRFQEEIKENTKNDKQMVQYIYKYTSYPDPILLMKSARNSCWSKDAEYGLYSIYQGGIFELKENDRIFVSVTNEHLIDMDHEASFFGAFLVG
